± gives the uncertainty stated by the source.
Assay: amyloid nucleation score (Sup35N fusion, yeast selection) (log enrichment); library NNK3; higher = more nucleation; inactive = no reads after selection
How it was run: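 Nucleation score: DiMSum log enrichment of output over input reads, centred on the mode score of non-aggregating sequences. Only sequences with at least 100 input reads were kept. Reads came from Illumina sequencing of plasmid inserts before and after 7 days of growth at 30°C without adenine and uracil, in psi-negative yeast expressing Sup35N fused to peptides of 20 random codons after 24 hours of induction with 100 μM copper sulfate.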

Row | Substance | amyloid nucleation score
1 | PTVKKLYMQLFLSPCISSEG | inactive
2 | SDIVCVKLEYT | inactive
3 | DGQARISRYSTWLEEFLRCG | inactive
4 | NFMCFLVFHDLYEGQGYELR | 2.3 ± 0.089
5 | SGLRASSSVMSCAYLTISWN | inactive
6 | YLCFLSKMVSYSISYQWSRQ | inactive
7 | FSFYFQDNTIKRWEAIED | inactive
8 | SKIFSCYVVLKSMLTDPGVA | inactive
9 | IRSCIIRSFTYMLGLH | inactive
10 | GYLWVLRLPGVSEFIEMDLQ | inactive
11 | WTWTSLSSLMWSV | inactive
12 | RLTRVVIMQRFIGEVRLSAL | inactive
13 | NRQFSDSLYRRACAMKEDCL | 0.643 ± 0.2
14 | SQKGCRH | inactive
15 | SEYFWLVWPSA | inactive
16 | NMTVGHILFLMMTCAMYVNN | inactive
17 | GISRYFYSMCETWMNCHSGV | 0.793 ± 0.28
18 | VFNFPQSDGNRSYMDFMAIQ | inactive
19 | NYYFT | inactive
20 | HFIASRGSGNLKVAFTDSQT | 1.23 ± 0.1
21 | KLTIRYLWYPLEQSGYRTCE | 1.06 ± 0.2
22 | RMRYFDVYIWSDMRNEPGGL | inactive
23 | ECSRNAVCF | inactive

Row | Substance | amyloid nucleation score
24 | VRDIRAIL | -0.551 ± 1.1
25 | ITVELTCGSGYYGTMTENQV | inactive
26 | RCKIENVIYM | 2.44 ± 0.058
27 | MSMVFIVSCNDDIYTRAR | 0.119 ± 0.24
28 | IVLNKSILYADTCPLFPTMR | 0.655 ± 0.11
29 | LVNGTFNFSDHAESESCSHS | inactive
30 | MRLDRS | inactive
31 | LTLITPPTRS | inactive
32 | ILPTAKKSKCGSHL | inactive
33 | GGSEGQSVPAC | -0.241 ± 1.5
34 | QYAAMATGNLYLS | inactive
35 | MCGDKSV | inactive
36 | CVSNLLTTYNNAFRFAHMVS | inactive
37 | IRASFEPWVLVRVFYSLCYG | inactive
38 | SNCTLRE | inactive
39 | RSQALFLNWTCDCGGYINQI | 1.01 ± 0.21
40 | SVVFLLRIAWYWGLWIVLLL | inactive
41 | CVRSTCQALGMGRWEPHCAI | inactive
42 | NWDFFKLKVNSHLTYAHDHR | inactive
43 | TLIHGGFTYLDQWKDETCPQ | inactive
44 | DSICDTCYAVGCLPRVCWVV | inactive
45 | IIFLQIPNLFMGNKTRQKGA | inactive
46 | IHSDLTVSCNIYWKSY | 0.922 ± 0.14

Row | Substance | amyloid nucleation score
47 | YWNLIWWAKQWDVFTGEEAL | inactive
48 | YFVSVGRNKELRGLFTRLVV | inactive
49 | SSITRGLHVRKTSVSTLGV | inactive
50 | NSVVSGFLGHVLVGRRCGHR | inactive
51 | FLVNEEPVQLHGAPVRYFKF | -0.504 ± 1.1
52 | TCRMVRGSMMDSAVV | inactive
53 | IFWYEDKIYKMGWQFGGIAY | 1.1 ± 0.11
54 | HWTGVAELLAGYCV | inactive
55 | IRRCPGMKVCWLYLKC | inactive
56 | FQARTPACPYVCSS | inactive
57 | RCVLRW | 1.34 ± 0.12
58 | FFEFSTSVVYN | inactive
59 | CNLVDSYNSKRMVNSTSMPF | inactive
60 | YGYFHTRGYVAFE | inactive
61 | HMIKVIVLCMMRFFIKSKNS | inactive
62 | RCTELVKAISLVVVYIYDEG | inactive
63 | QCKHSPGWAWRNSTNHCIAS | inactive
64 | GLHLYEFRGRCNTSVDSQTK | inactive
65 | SSFNIPMPSNYPKMIDLLFT | inactive
66 | DLVCTSLTRVAYRELIVWWF | inactive
67 | MYLGGKALIRPFPVYATAAW | inactive
68 | GVLRLVISEHDLDETFVFMT | 0.189 ± 0.43
69 | LCRLLVSTWNSASSFFCRKL | inactive

Row | Substance | amyloid nucleation score
70 | DICLSYIFLL | 0.84 ± 0.17
71 | TLPMLDNTNNFTSPL | -0.034 ± 0.31
72 | VIMGDINQVAQPGDLRRFRC | -0.423 ± 1.4
73 | LLDNITLFVWNYMVSSEWKL | inactive
74 | QSQLGPDCRSYTGGERVLDV | inactive
75 | FYIKVVNPCIPYT | inactive
76 | TNLSSSFLTQLRVILMSFLG | 0.798 ± 0.2
77 | GPSAGGFCQLRGVDVDV | inactive
78 | SNWECLGGHENGINCRDI | inactive
79 | SADQSCYSPHFGGQRDRRWL | inactive
80 | WDLGASYLTGMFWVRIVGLE | inactive
81 | EFFYINAMPVLYIDPYTSCF | inactive
82 | LQSCKATPRLCFEATLGRGV | -0.992 ± 2.5
83 | LRRQTSHKS | inactive
84 | GYNIMLYMLKYS | inactive
85 | IWGPTADKSRSVIGSVIKQG | inactive
86 | GSRRWFEFFVPWLQLD | inactive
87 | CYVPVKGLYMPPYGTLRLWG | inactive
88 | KPRVMFMISARVFVNYRICS | inactive
89 | WHDYTQRGVWAHGTALVWG | inactive
90 | HLGKPKEFMTIAGGLHCLML | inactive
91 | SGFYSLIVYNGFERALFVGS | inactive
92 | RNIYM | inactive

Row | Substance | amyloid nucleation score
93 | NLADAVEENGGYFHFTFPKF | inactive
94 | SYYFMGHLVFSVQTCIYTQG | 0.004 ± 0.26
95 | GRYHDGAAQWGRHNVFRSSA | inactive
96 | GMCWVDFVNNTASCVWFPLC | inactive
97 | VMVRTNMCR | inactive
98 | RWKLFWIHDR | 1.16 ± 0.14
99 | ARHSCA | inactive
100 | RYLITVAIPLSIGVLSTV | inactive
101 | HTSPWVELPVGISRTCDEDR | inactive
102 | GVFRPMWVLARVDSQNLASL | inactive
103 | GPGNMAMNVRAVKSGYHIAG | inactive
104 | LKVVSKVLYNSSYPVRYVLR | inactive
105 | RVERICDNVSSC | -0.577 ± 1
106 | LKCFEMNYQYGRRLNNG | inactive
107 | ISINLIVRCRRLHTPHLPVK | inactive
108 | TFFWTRCDIVGREWVSNTVN | inactive
109 | MISNHCYSLTMIAE | -0.432 ± 1
110 | FMVDTHFGNAFCFYMYCC | 2.26 ± 0.051
111 | PLPYANKNNCFGNSSLRATI | inactive
112 | TCHDGHGAGRTVSGVFGGVA | inactive
113 | LLWSCCRGRMYDNMFHGKVK | inactive
114 | FHVEVVAGCIVGNFGGVCVI | 0.5 ± 0.28
115 | YGMYNMTGNMAFKTPARYIF | inactive

Row | Substance | amyloid nucleation score
116 | ETWEIGRSKMGHRDCFCNYM | inactive
117 | SRQPRCALVVDVPP | inactive
118 | FELSYNWYNSNFVRRNVPFP | inactive
119 | LPAWKKTAFYFRYHGPFVRS | inactive
120 | TMHYFQNTAIDRYEMTAP | inactive
121 | YLFLVRSQTLRVRYWTRNPP | inactive
122 | CEVHEGWIA | inactive
123 | VIDWAYSPKPSDLTG | 1.09 ± 0.16
124 | SSGPIRLERMDYWHHWGATL | inactive
125 | SPRAFTASVEGVSEL | inactive
126 | PFCRMKLGMTLRALLLVMGS | inactive
127 | FLFLLWCNMMPEMYVIAMNI | inactive
128 | EGSYVYIKDYI | inactive
129 | AFLPMCGLDFKWRYV | -0.22 ± 1.4
130 | IISMVCED | 0.297 ± 0.32
131 | TVNYYRQNSIIMFESYNECC | 0.579 ± 0.17
132 | RFSGM | inactive
133 | DFWRYDSS | inactive
134 | GSSGENFVNYSKVTKSDLLY | inactive
135 | VYSLFKVELISILGRMKITK | inactive
136 | FCRPNSWI | 0.53 ± 0.38
137 | SDKLSFSRDPSVMRVGQVQR | inactive
138 | FHNAFAFLSHWGVMVRSFEG | inactive

Row | Substance | amyloid nucleation score
139 | SRNVGFGINSQQGLFFRVVV | inactive
140 | YYRGITMCT | inactive
141 | NYLYVELIWLHFSSMALRDD | inactive
142 | LKPQHSSGGSLSRMIYRPFL | 2.18 ± 0.088
143 | MPSEILVSGIAGYAWAVSR | -0.504 ± 1.9
144 | SIFMCNIVLFKRVVLPRGAS | 0.886 ± 0.18
145 | LETNG | inactive
146 | LASLTRLLDFMMSVENTYSA | inactive
147 | VVYDVTVKKSLDIRFPLRIP | inactive
148 | YSNLLAYWIQISKWIATGRC | inactive
149 | VGFLWMQRVNEVDK | inactive
150 | KGFRAVCWICIYRDEY | -0.533 ± 0.84
151 | YVLELGAGGPKNMIHDMNAD | inactive
152 | SLGTIMFVCGGPRGHLCSVR | -0.414 ± 1.4
153 | SPFFYFFWPGFR | inactive
154 | VIFDLVVGCGAVL | inactive
155 | YLIAIG | inactive
156 | FKSSVKGEGYGKMGFQLLPF | inactive
157 | RAFHYNSCKSVSAVLDLNVL | -0.094 ± 0.31
158 | CFFIVGLARIFGLVPVA | 0.804 ± 0.12
